The text below walks through data of US20190270815A1 (published 2019).

In general, Kd refers to the concentration at which binding is half-saturated. A word on the EC50: it is the concentration that produces a half-maximal response. The low end stands for an effect from little substance, the high end for a need for much substance. For orientation: IC50 means the concentration that inhibits the measured activity by half. The low end stands for greater potency in that assay, the high end for weaker potency in that assay.

Sequences and labels used below:
B1: 1.103.11 hAb (antibody, V domains shown)
VH: QLQLQESGPGLVKPSETLTLTCTVSADSISSTTYYWVWIRQPPGKGLEWIGSISYSGSTYYNPSLKSRVTVSVDTSKNQFSLKLNSVAATDTALYYCARHLGYNGRYLPFDYWGQGTLVTVSS
VL: QSALTQPASVSGSPGQSITISCTGTSSDVGFYNYVSWYQQHPGKAPELMIYDVSNRPSGVSDRFSGSKSGNTASLTISGLQAEDEADYYCSSYTNISTWVFGGGTKLTVL
B2: 1.7.3 hAb (antibody, V domains shown)
VH: B1 VH with A26G, S58N, V71I, Q79H, N85S
VL: B1 VL with S54T, N95S
B3: 1.153.7 hAb (antibody, V domains shown)
VH: EVQLLESGGGLVQPGGSLRLSCAASGFTFSSHAMSWVRQAPGKGLEWVSTITGGGGSIYYADSVKGRFTISRDNSKNTLYLQMNSLRAEDTAVYYCAKNRAGEGYFDYWGQGTLVTVSS
VL: SYELTQPLSVSVALGQTARITCGGDNIGNKDVHWYQQKPGQAPVLVIYRDSNRPSGIPEGFSGSNSGNTATLTISRAQAGDEADYYCQVWDSIWVFGGGTKLTVL
B4: 1.139.15 hAb (antibody, V domains shown)
VH: QLQLQESGPGLVKPSETLSLTCTVSGGSISSTTYYWGWIRQPPGKGLEWIGSISYSGTTYYNPSLKSRVTIPVDTSKNQISLKLSSVTAADTSLYYCARHLGYNSNWYPFDYWGQGTLVTVSS
VL: QSALTQPPSVSGSPGQSVTISCTGTSSDVGSYNRVSWYQQPPGTAPEVIIYEVSNRPSGVPDRFSGSKSGNTASLTISGLQAEDEADYYCSSYTSSSTWVFGGGTKLTVL
B5: 1.49.9 hAb (antibody, V domains shown)
VH: QLQLQESGPGLVKPSETLSLTCTVSGGSISSSTYYWGWIRQPPGKGLEWIGSISYSGSTYYNPSLKSRVTISVDTSKNQFSLKLSSVTDADTAVYYCARHLGYNGRYLPFDYWGQGTLVTVSS
VL: B1 VL with L48V, N95S

Substitutions are numbered along the chain they refer to.

T1 sequence (Q15116 25-288): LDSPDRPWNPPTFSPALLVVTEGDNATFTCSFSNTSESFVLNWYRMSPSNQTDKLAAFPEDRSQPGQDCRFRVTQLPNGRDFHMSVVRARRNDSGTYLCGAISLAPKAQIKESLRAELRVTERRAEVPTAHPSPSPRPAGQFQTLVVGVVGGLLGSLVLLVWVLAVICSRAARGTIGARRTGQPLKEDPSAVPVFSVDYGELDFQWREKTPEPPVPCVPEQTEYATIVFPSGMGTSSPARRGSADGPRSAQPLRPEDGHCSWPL

The target in one test is recombinant human PD-1 (human, UniProt Q15116 25-167). In words: SPR. (Surface plasmon resonance follows binding to a sensor surface in real time, without labels.)
Sequence of recombinant human PD-1 (Q15116 25-167): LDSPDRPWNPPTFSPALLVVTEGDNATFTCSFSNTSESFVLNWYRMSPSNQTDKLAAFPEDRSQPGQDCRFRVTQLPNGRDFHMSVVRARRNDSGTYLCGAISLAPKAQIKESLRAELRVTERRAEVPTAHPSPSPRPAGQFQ
Regarding B1, the Kd was found to be 0.175 nM.

Take B2: the dissociation constant (Kd) was 0.176 nM.

Take B3: the Kd stood at 2.79 nM.

Consider B4, for which the dissociation constant Kd was determined as 3.71 nM.

As to B5, the equilibrium dissociation constant (Kd) came to 1.07 nM.

Another test has as its target T1, human PD-1 expressed on cells (human, UniProt Q15116 25-288). The test can be described thus: FACS. (In general: A flow cytometer gives signals particle by particle.)
For B1, the EC50 worked out at 2.09 nM.

In the case of B2, a half-maximal response (EC50) required 2.44 nM.

The molecule B3 displayed a concentration giving a half-maximal response (EC50) of 2.62 nM.

B4 had an EC50 of 1.92 nM.

Regarding B5, the EC50 was determined as 2.15 nM. The EC50 values of the last two molecules are within 1.5-fold of each other.

For another test, the target named is T1, human PD-1 expressed on cells. In words: FACS blocking of PD-L1 binding.
Turning to B1, the IC50 stood at 4.44 nM. This counts as single-digit nanomolar.

B2 gave an IC50 of 3.51 nM.

For B3, the half-maximal inhibitory concentration (IC50) turned out to be 4.49 nM. This IC50 and that of the molecule before are within 1.5-fold of each other.

B4 displayed an IC50 of 3.1 nM. The IC50 values of the last two molecules are within 1.5-fold of each other.

In turn, B5 came in with an IC50 of 4.21 nM. This IC50 and that of the molecule before are within 1.5-fold of each other.
